Test results taken from patent US20180364250A1 (published 2018).
Where two headings read alike, the source gives them in different places. One block for each binder: values may come before it.

How the values were obtained:
[1] = target: T1, Ubiquitin (free, untagged) (UniProt P0CG48 1-76)
[2] = target: K11 Ub2; experiment: fluorescence competition with 5 nM Atto532-Ub(S20C) and 600 nM tSR
[3] = target: K63 Ub2; experiment: as above
[4] = target: K48 Ub4; experiment: as above
[5] = target: T1, Ubiquitin (free, untagged); experiment: competition
[6] = target: T1, Ubiquitin (free, untagged); experiment: fluorescence intensity

B1: Atto532-tagged IsoT^ZnF (S227C) (designed binder)
chain: MPSSHHHHHHSSGLVPRGSHMKQEVQAWDGEVRQVSKHAFSLKQLDNPARIPPSGWKCSKCDMRENLWLNLTDGSILCGRRYFDGCGGNNHAVEHYRETGYPLAVKLGTITPDGADVYSYDEDDMVLDPSLAEHLSHFGIDMLKMQK
modifications: Atto532 fluorophore on the Cys of S227C (the bold C of the 2nd table)
Kd [1]: 8.4 µM

B3: tSR chimeric polypeptide sensor (designed binder)
chain: MPSSHHHHHHSSGLVPRGSHMTEEEQIAYAMQMSLREAGGGSDLLCKKGCGYYGNPAWQGFCSKCWREEAHKCAAERAAAE
Ki [5]: 4.3 µM

The remaining lines, values ahead:

Ki [2]: 4.2 µM
Ki [3]: 4.3 µM
Ki [4]: 4 µM
B2: tSR (designed binder)
chain: B3 chain

Kd [6]: 0.587 µM
B4: Atto532-tagged tIV L1 Cys (designed binder)
chain: MGSSHHHHHHSSGLVPRGSHMKQEVQAWDGEVRQVSKHAFSLKQLDNPARIPPSGWKCSKCDMRENLWLNLTDGSILCGRRYFDGSGGNNHAVEHYRETGYPLAVKLGTITPDGADVWSYDEDDMVLDPSLAEHLSHFGIDMLKMQKGSCAAAEEAELDLKAAIQESLREA
modifications: Atto532 fluorophore on the Cys of linker 1 (the bold C of the 2nd table)
